Assay results published in patent publication US20040018971A1 (published 2004).
Where no end group is shown, it is not given here. [ ]: non-standard residue; d: D form. Abu = CC[C@H](N)C(=O)O

Assays:
[1] = molecular target: T1, HLA-DRB1*0101 (human); assay: competition with 125I-labeled standard peptide, purified HLA-DR, gel filtration
T1 construct: also called DR1

[2] = molecular target: T2, HLA-DRB1*0401 (human); assay: as above
T2 construct: also called DR4w4

[3] = molecular target: T3, HLA-DRB1*0701 (human); assay: as above
T3 construct: also called DR7

[4] = molecular target: HLA-A*0202 (human); assay: competition with 125I-labelled probe peptide for purified HLA, gel filtration
[5] = molecular target: T4, HLA-A*0201 (human); assay: as above
T4 construct: also called HLA-A2.1

[6] = molecular target: HLA-A*0206 (human); assay: as above
[7] = molecular target: HLA-A*6802 (human); assay: as above
[8] = molecular target: T5, HLA-A*0201 (human); assay: competition for purified HLA vs 125I-labelled probe peptide, gel filtration
T5 construct: also called HLA-A2.1

[9] = molecular target: T6, HLA-A*6802 (human); assay: as above
T6 construct: purified HLA class I molecule

[10] = molecular target: T7, HLA-A*0203 (human); assay: as above
T7 construct: purified HLA class I molecule

[11] = molecular target: T8, HLA-A*0202 (human); assay: as above
T8 construct: purified HLA class I molecule

[12] = molecular target: T9, HLA-A*0206 (human); assay: as above
T9 construct: purified HLA class I molecule

[13] = molecular target: HLA-DR3 (DRB1*0301), purified HLA class II molecule (human); assay: competition with 125I-labelled probe peptide, purified HLA-DR
[14] = molecular target: HLA-A*0203 (human); assay: competition with 125I-labelled probe peptide for purified HLA, gel filtration
[15] = molecular target: HLA-A*6801 (purified HLA class I molecule) (human); assay: inhibition of 125I probe peptide binding to purified HLA; ratio to standard peptide
[16] = molecular target: HLA-A*1101 (purified HLA class I molecule) (human); assay: as above
[17] = molecular target: T10, HLA-A*0301 (purified HLA class I molecule) (human); assay: as above
T10 construct: also called A3

[18] = molecular target: HLA-A*3101 (purified HLA class I molecule) (human); assay: as above
[19] = molecular target: HLA-A*3301 (purified HLA class I molecule) (human); assay: as above
[20] = molecular target: T11, HLA-DR3 (DRB1*0301) (human); assay: competition with 125I-labelled probe peptide on purified HLA-DR, gel filtration; IC50 of standard peptide / IC50 of test peptide
T11 construct: Purified HLA class II molecule

B1: HER2/neu DR supermotif exemplary peptide QGFFCPDPAPGAGGM (position 1028) (peptide)
peptide: QGFFCPDPAPGAGGM
notes: synthetic 15-mer; also called Her2/neu.1028
relative binding ratio [1]: -0.0005 ratio (standard IC50 / test IC50)
relative binding ratio [2]: 0.023 ratio (standard IC50 / test IC50)
relative binding ratio [3]: -0.0011 ratio (standard IC50 / test IC50)

B2: Her2/neu.952L2V10 (peptide)
peptide: YLIMVKCWMV
IC50 [4]: 56 nM
IC50 [5]: 13 nM
IC50 [6]: 18 nM
IC50 [7]: 84 nM

B3: Her2/neu.653.L2V9 (peptide)
peptide: SLISAVVGV
notes: analog of Her2/neu.653
IC50 [8]: 7.1 nM
IC50 [9]: 110 nM
IC50 [10]: 16 nM
IC50 [11]: 10 nM
IC50 [12]: 20 nM

B4: HER2/neu DR supermotif exemplary 15-mer VHTVPWDQLFRNPHQ (position 477) (peptide)
peptide: VHTVPWDQLFRNPHQ
notes: also called Her2/neu.477
relative binding ratio [13]: 0.022 ratio (IC50 standard / IC50 test)

B5: Her2/neu.153.V9 (peptide)
peptide: VLIQRNPQV
notes: analog of Her2/neu.153
IC50 [8]: 55 nM
IC50 [10]: 135 nM
IC50 [11]: 768 nM
IC50 [12]: 385 nM

B6: Her2/neu.952L2B7V10 (peptide)
peptide: YLIMVK[Abu]WMV
notes: also called YLIMVKBWMV
IC50 [14]: 77 nM
IC50 [4]: 66 nM
IC50 [5]: 7.2 nM
IC50 [6]: 11 nM
IC50 [7]: 851 nM

B7: Her2/neu.952.L2V10 (peptide)
peptide: YLIMVKCWMV
notes: analog of Her2/neu.952 (10-mer)
IC50 [8]: 13 nM
IC50 [9]: 84 nM
IC50 [11]: 56 nM
IC50 [12]: 18 nM

B8: HER2/neu peptide, position 528, 9 amino acids (peptide)
peptide: CVNCSQFLR
notes: also called Her2/neu.528
relative binding ratio [15]: 0.44 ratio (IC50 standard / IC50 test)
relative binding ratio [16]: 0.031 ratio (IC50 standard / IC50 test)
relative binding ratio [17]: 0.0015 ratio (IC50 standard / IC50 test)
relative binding ratio [18]: 0.53 ratio (IC50 standard / IC50 test)
relative binding ratio [19]: 0.58 ratio (IC50 standard / IC50 test)

B9: HER2/neu DR supermotif exemplary peptide ITDFGLARLLDIDET (position 861) (peptide)
peptide: ITDFGLARLLDIDET
notes: synthetic 15-mer; also called Her2/neu.861
relative binding ratio [1]: 0.0048 ratio (standard IC50 / test IC50)
relative binding ratio [2]: -0.0032 ratio (standard IC50 / test IC50)
relative binding ratio [3]: -0.0011 ratio (standard IC50 / test IC50)

B10: HER2/neu DR supermotif exemplary 15-mer RSLLEDDDMGDLVDA (position 1006) (peptide)
peptide: RSLLEDDDMGDLVDA
notes: also called Her2/neu.1006
relative binding ratio [13]: 0.008 ratio (IC50 standard / IC50 test)

B11: HER2/neu DR supermotif exemplary 15-mer TAPLQPEQLQVFETL (position 389) (peptide)
peptide: TAPLQPEQLQVFETL
notes: also called Her2/neu.389
relative binding ratio [13]: 0.0023 ratio (IC50 standard / IC50 test)

B12: HER2/neu peptide, position 596, 10 amino acids (peptide)
peptide: CVARCPSGVK
notes: also called Her2/neu.596 (10-mer)
relative binding ratio [15]: 0.0093 ratio (IC50 standard / IC50 test)
relative binding ratio [16]: 0.0042 ratio (IC50 standard / IC50 test)
relative binding ratio [17]: 0.022 ratio (IC50 standard / IC50 test)
relative binding ratio [18]: 0.0008 ratio (IC50 standard / IC50 test)
relative binding ratio [19]: 0.0064 ratio (IC50 standard / IC50 test)

B13: HER2/neu peptide, position 607, 9 amino acids (peptide)
peptide: DLSYMPIWK
notes: also called Her2/neu.607 (9-mer)
relative binding ratio [15]: 0.031 ratio (IC50 standard / IC50 test)
relative binding ratio [16]: 0.01 ratio (IC50 standard / IC50 test)
relative binding ratio [17]: 0.0005 ratio (IC50 standard / IC50 test)
relative binding ratio [18]: 0.0002 ratio (IC50 standard / IC50 test)
relative binding ratio [19]: 0.088 ratio (IC50 standard / IC50 test)

B14: HER2/neu peptide, position 327, 10 amino acids (peptide)
peptide: GTQRCEKCSK
notes: also called Her2/neu.327 (10-mer)
relative binding ratio [15]: 0.01 ratio (IC50 standard / IC50 test)
relative binding ratio [16]: 0.61 ratio (IC50 standard / IC50 test)
relative binding ratio [17]: 0.021 ratio (IC50 standard / IC50 test)
relative binding ratio [18]: 0.014 ratio (IC50 standard / IC50 test)
relative binding ratio [19]: 0.0012 ratio (IC50 standard / IC50 test)

B15: Her2/neu.369T2V9 (peptide)
peptide: KTFGSLAFV
IC50 [14]: 1010 nM
IC50 [4]: 13 nM
IC50 [5]: 35 nM
IC50 [7]: 17 nM

B16: Her2/neu.653.L2V9 (peptide)
peptide: SLISAVVGV
IC50 [14]: 16 nM
IC50 [4]: 10 nM
IC50 [5]: 7.1 nM
IC50 [6]: 20 nM
IC50 [7]: 110 nM

B17: HER2/neu peptide FVVIQNEDLGPASPL (position 986) (peptide)
peptide: FVVIQNEDLGPASPL
notes: also called Her2/neu.986
relative binding ratio [20]: -0.0025 ratio
